Reference: the supplement of paper PMC11316812
± gives the standard deviation of the averaged measurements.

Tests used:
MCF7 = assay: percentage of EdU-negative (G0-arrested) nuclei per well, 72 h; higher = more G0 arrest; details: reference: sequence is the full UniProt precursor, the tested protein was the secreted form or ectodomain
hTERT-HMEC = assay: as above; details: reference: sequence is the full UniProt precursor, the tested protein was the secreted form or ectodomain
[1] = protein concentration 0.0257143 µM
[2] = protein concentration 0.257143 µM
[3] = protein concentration 0.0357143 µM
[4] = protein concentration 0.357143 µM
[5] = protein concentration 0.0225 µM
[6] = protein concentration 0.03125 µM
[7] = protein concentration 0.3125 µM
[8] = protein concentration 0.01725 µM
[9] = protein concentration 0.1725 µM
[10] = protein concentration 0.0345714 µM
[11] = protein concentration 0.345714 µM
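Also: secreted proteins added to cultured cells, EdU pulse at the end, nuclei found by Hoechst imaging, EdU status from nuclear versus surrounding ring intensity ratio, PBS as neutral control.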

MERRAWSLQCTAFVLFCAWCALNSAKAKRQFVNEWAAEIPGGPEAASAIAEELGYDLLGQIGSLENHYLFKHKNHPRRSRRSAFHITKRLSDDDRVIWAEQQYEKERSKRSALRDSALNLFNDPMWNQQWYLQDTRMTAALPKLDLHVIPVWQKGITGKGVVITVLDDGLEWNHTDIYANYDPEASYDFNDNDHDPFPRYDPTNENKHGTRCAGEIAMQANNHKCGVGVAYNSKVGGIRMLDGIVTDAIEASSIGFNPGHVDIYSASWGPNDDGKTVEGPGRLAQKAFEYGVKQGRQGKGSIFVWASGNGGRQGDNCDCDGYTDSIYTISISSASQQGLSPWYAEKCSSTLATSYSSGDYTDQRITSADLHNDCTETHTGTSASAPLAAGIFALALEANPNLTWRDMQHLVVWTSEYDPLANNPGWKKNGAGLMVNSRFGFGLLNAKALVDLADPRTWRSVPEKKECVVKDNDFEPRALKANGEVIIEIPTRACEGQENAIKSLEHVQFEATIEYSRRGDLHVTLTSAAGTSTVLLAERERDTSPNGFKNWDFMSVHTWGENPIGTWTLRITDMSGRIQNEGRIVNWKLILHGTSSQPEHMKQPRVYTSYNTVQNDRRGVEKMVDPGEEQPTQENPKENTLVSKSPSSSSVGGRRDELEEGAPSQAMLRLLQSAFSKNSPPKQSPKKSPSAKLNIPYENFYEALEKLNKPSQLKDSEDSLYNDYVDVFYNTKPYKHRDDRLLQALVDILNEEN
percentage of EdU-negative (MCF7; protein concentration 0.009 µM): 25.7 ± 4%
percentage of EdU-negative (MCF7; protein concentration 0.09 µM): 27.832 ± 0.026%
percentage of EdU-negative (hTERT-HMEC; protein concentration 0.009 µM): 4.928 ± 0.013%
percentage of EdU-negative (hTERT-HMEC; protein concentration 0.09 µM): 7.51 ± 0.97%

MERVQPLEENVGNAARPRFERNKLLLVASVIQGLGLLLCFTYICLHFSALQVSHRYPRIQSIKVQFTEYKKEKGFILTSQKEDEIMKVQNNSVIINCDGFYLISLKGYFSQEVNISLHYQKDEEPLFQLKKVRSVNSLMVASLTYKDKVYLNVTTDNTSLDDFHVNGGELILIHQNPGEFCVL
percentage of EdU-negative (MCF7; [1]): 23.4 ± 0.97%
percentage of EdU-negative (MCF7; [2]): 27.27 ± 0.14%
percentage of EdU-negative (hTERT-HMEC; [1]): 5.74 ± 1.2%
percentage of EdU-negative (hTERT-HMEC; [2]): 5.19 ± 1.2%

MESKGASSCRLLFCLLISATVFRPGLGWYTVNSAYGDTIIIPCRLDVPQNLMFGKWKYEKPDGSPVFIAFRSSTKKSVQYDDVPEYKDRLNLSENYTLSISNARISDEKRFVCMLVTEDNVFEAPTIVKVFKQPSKPEIVSKALFLETEQLKKLGDCISEDSYPDGNITWYRNGKVLHPLEGAVVIIFKKEMDPVTQLYTMTSTLEYKTTKADIQMPFTCSVTYYGPSGQKTIHSEQAVFDIYYPTEQVTIQVLPPKNAIKEGDNITLKCLGNGNPPPEEFLFYLPGQPEGIRSSNTYTLTDVRRNATGDYKCSLIDKKSMIASTAITVHYLDLSLNPSGEVTRQIGDALPVSCTISASRNATVVWMKDNIRLRSSPSFSSLHYQDAGNYVCETALQEVEGLKKRESLTLIVEGKPQIKMTKKTDPSGLSKTIICHVEGFPKPAIQWTITGSGSVINQTEESPYINGRYYSKIIISPEENVTLTCTAENQLERTVNSLNVSAISIPEHDEADEISDENREKVNDQAKLIVGIVVGLLLAALVAGVVYWLYMKKSKTASKHVNKDLGNMEENKKLEENNHKTEA
percentage of EdU-negative (MCF7; [3]): 26.8 ± 1.2%
percentage of EdU-negative (MCF7; [4]): 25.13 ± 0.15%
percentage of EdU-negative (hTERT-HMEC; [3]): 4.83 ± 0.2%
percentage of EdU-negative (hTERT-HMEC; [4]): 5.08 ± 0.77%

MESPSAPPHRWCIPWQRLLLTASLLTFWNPPTTAKLTIESTPFNVAEGKEVLLLVHNLPQHLFGYSWYKGERVDGNRQIIGYVIGTQQATPGPAYSGREIIYPNASLLIQNIIQNDTGFYTLHVIKSDLVNEEATGQFRVYPELPKPSISSNNSKPVEDKDAVAFTCEPETQDATYLWWVNNQSLPVSPRLQLSNGNRTLTLFNVTRNDTASYKCETQNPVSARRSDSVILNVLYGPDAPTISPLNTSYRSGENLNLSCHAASNPPAQYSWFVNGTFQQSTQELFIPNITVNNSGSYTCQAHNSDTGLNRTTVTTITVYAEPPKPFITSNNSNPVEDEDAVALTCEPEIQNTTYLWWVNNQSLPVSPRLQLSNDNRTLTLLSVTRNDVGPYECGIQNELSVDHSDPVILNVLYGPDDPTISPSYTYYRPGVNLSLSCHAASNPPAQYSWLIDGNIQQHTQELFISNITEKNSGLYTCQANNSASGHSRTTVKTITVSAELPKPSISSNNSKPVEDKDAVAFTCEPEAQNTTYLWWVNGQSLPVSPRLQLSNGNRTLTLFNVTRNDARAYVCGIQNSVSANRSDPVTLDVLYGPDTPIISPPDSSYLSGANLNLSCHSASNPSPQYSWRINGIPQQHTQVLFIAKITPNNNGTYACFVSNLATGRNNSIVKSITVSASGTSPGLSAGATVGIMIGVLVGVALI
percentage of EdU-negative (MCF7; [5]): 26.7 ± 2.2%
percentage of EdU-negative (MCF7; protein concentration 0.225 µM): 25.3 ± 0.33%
percentage of EdU-negative (hTERT-HMEC; [5]): 5.67 ± 0.092%
percentage of EdU-negative (hTERT-HMEC; protein concentration 0.225 µM): 5.42 ± 0.42%

MESRGPLATSRLLLLLLLLLLRHTRQGWALRPVLPTQSAHDPPAVHLSNGPGQEPIAVMTFDLTKITKTSSSFEVRTWDPEGVIFYGDTNPKDDWFMLGLRDGRPEIQLHNHWAQLTVGAGPRLDDGRWHQVEVKMEGDSVLLEVDGEEVLRLRQVSGPLTSKRHPIMRIALGGLLFPASNLRLPLVPALDGCLRRDSWLDKQAEISASAPTSLRSCDVESNPGIFLPPGTQAEFNLRDIPQPHAEPWAFSLDLGLKQAAGSGHLLALGTPENPSWLSLHLQDQKVVLSSGSGPGLDLPLVLGLPLQLKLSMSRVVLSQGSKMKALALPPLGLAPLLNLWAKPQGRLFLGALPGEDSSTSFCLNGLWAQGQRLDVDQALNRSHEIWTHSCPQSPGNGTDASH
percentage of EdU-negative (MCF7; [6]): 21.8 ± 3%
percentage of EdU-negative (MCF7; [7]): 23.55 ± 0.15%
percentage of EdU-negative (hTERT-HMEC; [6]): 4.94 ± 0.58%
percentage of EdU-negative (hTERT-HMEC; [7]): 17.6 ± 1.6%

MESRVLLRTFCLIFGLGAVWGLGVDPSLQIDVLTELELGESTTGVRQVPGLHNGTKAFLFQDTPRSIKASTATAEQFFQKLRNKHEFTILVTLKQTHLNSGVILSIHHLDHRYLELESSGHRNEVRLHYRSGSHRPHTEVFPYILADDKWHKLSLAISASHLILHIDCNKIYERVVEKPSTDLPLGTTFWLGQRNNAHGYFKGIMQDVQLLVMPQGFIAQCPDLNRTCPTCNDFHGLVQKIMELQDILAKTSAKLSRAEQRMNRLDQCYCERTCTMKGTTYREFESWIDGCKNCTCLNGTIQCETLICPNPDCPLKSALAYVDGKCCKECKSICQFQGRTYFEGERNTVYSSSGVCVLYECKDQTMKLVESSGCPALDCPESHQITLSHSCCKVCKGYDFCSERHNCMENSICRNLNDRAVCSCRDGFRALREDNAYCEDIDECAEGRHYCRENTMCVNTPGSFMCICKTGYIRIDDYSCTEHDECITNQHNCDENALCFNTVGGHNCVCKPGYTGNGTTCKAFCKDGCRNGGACIAANVCACPQGFTGPSCETDIDECSDGFVQCDSRANCINLPGWYHCECRDGYHDNGMFSPSGESCEDIDECGTGRHSCANDTICFNLDGGYDCRCPHGKNCTGDCIHDGKVKHNGQIWVLENDRCSVCSCQNGFVMCRRMVCDCENPTVDLFCCPECDPRLSSQCLHQNGETLYNSGDTWVQNCQQCRCLQGEVDCWPLPCPDVECEFSILPENECCPRCVTDPCQADTIRNDITKTCLDEMNVVRFTGSSWIKHGTECTLCQCKNGHICCSVDPQCLQEL
percentage of EdU-negative (MCF7; [8]): 24.4 ± 2.6%
percentage of EdU-negative (MCF7; [9]): 28.9 ± 0.7%
percentage of EdU-negative (hTERT-HMEC; [8]): 5.41 ± 0.14%
percentage of EdU-negative (hTERT-HMEC; [9]): 12.7 ± 0.33%

MESSRVRLLPLLGAALLLMLPLLGTRAQEDAELQPRALDIYSAVDDASHEKELIEALQEVLKKLKSKRVPIYEKKYGQVPMCDAGEQCAVRKGARIGKLCDCPRGTSCNSFLLKCL
percentage of EdU-negative (MCF7; [5]): 28.1 ± 1.3%
percentage of EdU-negative (MCF7; protein concentration 0.225 µM): 24.6 ± 0.93%
percentage of EdU-negative (hTERT-HMEC; [5]): 5.12 ± 0.53%
percentage of EdU-negative (hTERT-HMEC; protein concentration 0.225 µM): 5.36 ± 0.64%

METPAWPRVPRPETAVARTLLLGWVFAQVAGASGTTNTVAAYNLTWKSTNFKTILEWEPKPVNQVYTVQISTKSGDWKSKCFYTTDTECDLTDEIVKDVKQTYLARVFSYPAGNVESTGSAGEPLYENSPEFTPYLETNLGQPTIQSFEQVGTKVNVTVEDERTLVRRNNTFLSLRDVFGKDLIYTLYYWKSSSSGKKTAKTNTNEFLIDVDKGENYCFSVQAVIPSRTVNRKSTDSPVECMGQEKGEFREIFYIIGAVVFVVIILVIILAISLHKCRKAGVGQSWKENSPLNVS
percentage of EdU-negative (MCF7; [10]): 24.03 ± 0.11%
percentage of EdU-negative (MCF7; [11]): 22.3 ± 1.8%
percentage of EdU-negative (hTERT-HMEC; [10]): 4.27 ± 0.75%
percentage of EdU-negative (hTERT-HMEC; [11]): 6.032 ± 0.015%
